According to patent CN107973850A:

Tests used:
[1] = molecular target: CSFV感染细胞的E2蛋白 (CSFV石门株病毒的E2蛋白) (classical swine fever virus, Shimen strain); assay: cell-based or functional assay
[2] = molecular target: CHO细胞表达的CSFV石门株E2蛋白 (classical swine fever virus, Shimen strain)

B1: 重组猪瘟病毒E2蛋白猪源化单克隆抗体rHQ06 Sw (antibody, V domains shown)
VH: QVQLQQSGGGLVQPKGSLKLSCAASGFTFNNNAMDWVRQAPGKGLEWVARIRTKSNYYATSYADSVKDRFTISRDDSQSMLYLQMNNLKTEDTAIYFCVREGYYAWFAYWGQGTLVTVSA
VL: DIVLTQTPSSLAVSIGEKVTMSCKSSQSLLYSRNQKNYLAWYQQKPGQFPKLLIYWASTRESGVPDRFTGSGSGTDFTLTISSVKAEDLAVYYCQQYYSYPYTFGGGTKLEIKR
Question: Which 中和效价 (病毒中和试验, IFA) [1] does the source give for B1 here?
Answer: 12

Question: What about the Kd [2] of the same binder?
Answer: 13.1 nM

Question: What about the kon [2] of the same binder?
Answer: 98400 M⁻¹ s⁻¹
